Experiment: soluble on expression in E. coli; label from the status in PepcDB or PDB records

| Sequence | soluble on expression in E. coli |
| --- | --- |
| MGSDKIHHHHHHMQREEWFHRAVIYQVDSSLFYDANGDGFGDLAGIRQKLHYIRSLGATVLWLTPFYLTPLQDDGYDISDHLQPDPRFGTIADVIELIARARELGLRVIVELVIQHTSAQHPWFQAARRDPRSPWRPYYLWADRPPENDDPPMFPGVEESVWRWDEQAGQYYRHMFYHHEPDLNLAHPPVIAEIENIITFWLQAGVSGFRLDAASHLVKQAGKGDETRGYPLLTHLRQVVQRLNPDAILLGEVDVAVEDYRHYFGQGDRLQMVLNFWLNKYLYLSLAQQRAAPVVKALQAMVTPPDGCCFVNWLRNHDELDLEGIGERNKRQVIRTFAPDKSMSVYQRGVRRRLAPMLDGDTRRIALAHAILLALPGVPVMRYGDEIGMGDDLSLPERYAVRTPMQWSAAANAGFSRAARDDLPVKPVASGRFRYQRINVETALRHPRSLLHRVRNMVLARTEYTEPGSLPFTLLTLKPDAVLGLLYRSESREVLMLANCSQQAVEVLLPPLAEGYWSPILEDKLYQDGLHGGKDARLALSGYGYRWFSRSLS | not soluble |
| MGHHHHHHSHMLFIDNQNINDPRINLAIEEYCVKHLDPEQQYLLFYVNQPSIIIGKNQNTIEEINTKYVEENGIIVVRRLSGGGAVYHDLGNLNFSFITKDDGDSFHNFKKFTEPVIQALHQLGVEAELSGRNDIVVDGRKISGNAQFATKGRIFSHGTLMFDSAIDHVVSALKVKKDKIESKGIKSIRSRVANISEFLDDKMTTEEFRSHLLRHIFNTNDVGNVPEYKLTEKDWETIHQISKERYQNWDWNYGRSPKFNLNHSKRYPVGSIDLHLEVKKGKIEDCKIFGDFFGVGDVSEIENLLVGKQYERSVIADVLEGVNLKHYFGNITKEDFLDLIY | not soluble |
| MAHHHHHHMPGFADSFNGVAVGSSTMLTRGTHSSQDAVHHTDTATAAEWRALYGASADMMNSTAHTYRACGAGVSYMTPIFHLTANDVTILSMEHNNHCRLLGIATSKNQIFVTWTQVMPVIENMGMLRAPDDDLFGGEQATPVDERLLEWDPATMSILIDELPYTCTELSWAPWQQGIYLAGLCPGHGIRLYRYSHGNWALDDCIRSTESVSCSISTNFTVACACRRGRVELWVRGSTASGTAVAPGPSPSLSAGDSTATNGGDGVSHTSWVLCRVLTLPFSEDDNGGSRTHDGDRSGGAGSPSAVAARHRRRDILGVAWVESGALLAAGDQGGSVYVVAATQDSTRLGEVVYHQLPSALCGPCKQVAWSPSSGRSFLCLAMVFTTCVRLVLFRRPSFMNAAGLPHAARSVGGSGGGRMGWAHSSVAPIAASSLEVLAMTQVPCEEVAKLSWNNTGTRFVTAHLDSSVNIWAVDFRYRHPVKGDGANATSGREEANTLHSVDSARMDRQVETSVFAAAGEERLGIVVSVQCTSAVHPYHAVSK | not soluble |
| AKIYDKNGELVKTLDNGQRHEHVNIKDVPKDMKNAVLATEDNRFYQHGALDYKRLFGAIGKNLTGGFGSQGASTLTQQVVKDSFLTQQKSIGRKAQEAYLSYRLEQEYSKDEIFQVYMNKIYYSDGVTGIKAAAKYYFNKDMKDLNLAEEAYLAGLPQVPNLYNIYNNP | not soluble |
| MPYLNCDTITGDFHFQMIRFARAMEVGDKLTMKGKIMNPANMSYLHLYQGFNSVYEKSPLSLHIRVQYLRNSIIYNSWFGSWGGEQFSQQPFLSGNYYSISVLKGPTYYSIYMGNLLITKYAFRNPANWQIGNLLGYGDWTVTSVSMTCVRPGVPTTPDPKATTTPTPTTTKAQNIIAEDPNGGQLGGGELVVTNPGSVGSGSGNSGNSSNNNNSSGNSNYGSNNSGSGNGNSNSGNGNSGNGNGNNAGNSGNGNGNSNGNNGNGSNGNGNGNNGNGNNGNNGNGHPQYPYPVPPHGYYPPGYPYPPGYPYPPPGAFYYPPGGIPQNGMNGQNGNGQPNIIVINSGGNKKRNRGGNLRPQFDVDLDGDEDEEC | not soluble |
| MLPSSIEDYALIGDCETAALVGRDGSIDWLCWPSFDSEACFAALLGNEDNGRWQIAPADEVVRCSRRYRGDSLILETTFETATGSITLIDFMPPRGSASDVVRLVRGDRGRVKVAMQLVIRFGYGVALEHHHHHH | not soluble |
| MGSDKIHHHHHHMGELTIAKSAGFCFGVTRAVNMVYEAIEKENVPIYTYGPIIHNDEVVKDMEKNGVTVINDLDELSSHEKGVMIIRSHGISKAEYDRIKNCGFEVLNATCPFVSKIHRYVEDYSSKGYDIIIVGSPKHPEVCGIKGWADEKCHVTIINSPEDAENYMKNSTKKLCIVSQTTFNYNKFQDIVEIIAKKGYDITVLNTICNATEVRQTEARKVAQCSDVMIVIGDRHSSNTQKLFEICKNECKNTYYIQTSDEMDYTQIRSNNNVGITAGASTPNNIIEEVSKNVRNEL | not soluble |
| HARKSLTVLVVGESARAENFGILGYGRNTTPNLNKENGLVAFTDVYSCGTETAVSVPCMFSNMGRKNYNATKARNQEGLLDVLKHAGIEVAWRDNQSGCKGTCDRVTFQDVSNLTDPLLCNSHECRDEILLQNLQGFIDSLDKDTVLVLHQMGSHGPEYYKRYPKEFEKFTPVCESNALNNCSRDSIVNAYDNTLLYTDHVLSTLIDLLRSNQAKVDTAMVYLSDHGESLGEYNLFLHGTPYVLAPDQQKHVPMLIWLSDTYQKSFAVTPDCLAKQRNAPLSQDNLFHSMLGLLKVDTKVYDPSLDMFAGCRSELAAADKQ | not soluble |
| MSLKYDVVVIGAGGAGYHGAFRLAKAKYNVLMADPKGELGGNCLYSGCVPSKTVREVIQTAWRLTNIANVKIPLDFSTVQDRKDYVQELRFKQHKRNMSQYETLTFYKGYVKIKDPTHVIVKTDEGKEIEAETRYMIIASGAETAKLRLPGVEYCLTSDDIFGYKTSFRKLPQDMVIIGAGYIGLEIASIFRLMGVQTHIIEMLDRALITLEDQDIVNTLLSILKLNIKFNSPVTEVKKIKDDEYEVIYSTKDGSKKSIFTNSVVLAAGRRPVIPEGAREIGLSISKTGIVVDETMKTNIPNVFATGDANGLAPYYHAAVRMSIAAANNIMANGMPVDYVDVKSIPVTIYTIPSLSYVGILPSKARKMGIEIVEAEYNMEEDVSAQIYGQKEGVLKLIFERGSMRLIGAWMIGVHSQYLINELGLAVAYGLNAKQLASFAEQHPSTNEIISYTARKVIEGHHHHHH | soluble |
| GPGSMKRFGIWTRPSLGRRSFYAGLDDSRVMRLRRSNTTLNKPRGRDAFSLAFEKRIHLLPLTQVGDLYGLPVPPSAPGESSGGAAEETIRVLVVDLLLLEDVESLISFPASNPLYYEDWPTVSDNSEGEVPSDRRSGISSSLALGESGFSLPSSNKRHLRQYGDTTLLRNSFVREAAHGVSAQFHTAICINPFIDVDRFRREEAQVEMISAYRNILYEAAEVPDGRADVIRIPALCCDTCGPRFYHEIGKLNQQSLIKGFHRIGSEAKETLMLNPKFIVEVYVPLPFLQQFQRAFLEDAWETPESTLNPGRTALYPGLAPPRSLLPLEGWIGKRPELVEAIETEGRSLMSGVKYSLDGKPIEEREVLAELRVFGREKEQEEMLKREEETATQQGLEVAPNGNTVAPLRAGIDQN | not soluble |
| MSLGYKCVYMLSEIKEYLKNTVLFAFDFETSPRDKWRNDKSAALDAHKADITGISFSVSEGTAIYVPLKHRSGRNAENQAAIWDYLKLLFESKDVIKVAHNLAFESMFLYARGIVLQKPCYDTIAASQLTLKSKWEFRSLADSGLKTLAPALCKAEMTEFSTVTEGRFFDELNPQDEKTVRYACADSDYTLRLYHVFNQWFDRFLPKHRTIVEEVESPTSVYVGIMKYNGILVDKSAMLKKQAEAAEKIVSIRKEIAGIIGNVEIGANASTSAFKKYLFVDLGLPVMKTTAKHQEAADDETMILLKEWCATNRPELVRLFELVQEYRKWGKLKSTYIDGYLRFIDEDTGRIHPDLMPLGTETGRFASRNPNMQNCPQKDNDPIGVRKFIIAPAGKVLLSLDFSQIELRVGAFYCRDKRMLETYRTGGDIHAQTTSVIYRIPFEEAADKNAPHYKERRTIAKNCNFGVFYGLFPTGLQRTLKFKAGINPTLAECETIIQNLKSGYPGLAKWQDEVKKRAAVSCYSETWLGRRRYLLGIRSSDWGKKSFAERCALNTPIQGTAADILKLACGRIISGLPERLWLKPMLQIHDELVFELPEDKVDEAVVFIKECMETQPFPAFDVPIVAEASVGRNFGEMKEMEEGHHHHHH | soluble |
| MGSDKIHHHHHHMIIRKICTTLPVILPEPETIMTVTRPRAERGAFPPGTEHYGRSLLGAPLIWFPAPAASRESGLILAGTHGDENSSVVTLSCALRTLTPSLRRHHVVLCVNPDGCQLGLRANANGVDLNRNFPAANWKEGETVYRWNSAAEERDVVLLTGDKPGSEPETQALCQLIHRIQPAWVVSFHDPLACIEDPRHSELGEWLAQAFELPLVTSVGYETPGSFGSWCADLNLHCITAEFPPISSDEASEKYLFAMANLLRWHPKDAIRPS | not soluble |
| TDSTGIDLHEFLVNTLKKNPRDRMMLLKLEQEILEFINDNNNQFKKFPQMTSYHRMLLHRVAAYFGMDHNVDQTGKAVIINKTSNTRIPEQRFSEHIKDEKNTEFQQRFIL | soluble |
| MNEKWIVERAEREGGRLWLYVNDAPVPLARVTPKRHMLVDSDALAFAYILETDDRFLYVMVPKLWWPELKAALDAEEPVWLRCGERTLELEQFHDELSYLLENIRGNANYGEALEQAVQDVFFEQ | not soluble |
| MGSDKIHHHHHHMRSLTNAEIAHNRLLNSGLLQSKFSSAEDATRALFGIQSQYQQFGEISLFNRVPNLTKENLQMAYDDKGIIKIWGQRMTIHMYTPDDWFYVHDVYANKNNWLRKHADSLGRDLDEILVQMEELLLREDKVSKESFAALLGNEAKELMTWGGVFIQGSLDGKLFCVPESPKTKFYSHRNQIDSEREDAWITNKRSKTGLETMIDRYFSAFGPATIQDFKHWSGLRNSDYIETLEKLLENYICYIGEDGKNYYSKAKTQENVEMGSPLLLGKFDPLFVSYAKKNWLASEKETSLIWRTAGQIEAVLIINAQFFGTWRYKISGDKIVFQFYLSKKLTKKGQKLVEKEAIKLAEFLLKNYQGSIFEQI | not soluble |
| MGSDKIHHHHHHMEIVFVYDAVYPWTKGGVERRLHEVGRRLSNEHNVKWLCVGWWGKEKRIQEGVELIPVCKAQQLYSRGRRTIREAMIFAASLLKKSRIKADVIDCQVFPYLSVFPFATRKELVLTWHEFWGDYWYEYLGKAGFFGKAVERIVAKLKARTIAVSETTRKALESLGIRATVIPNGVDFPRISEIPASSEEWDVIFVGRLIREKNLELLFDAMKLLPELNCLVVGDGPERERLSKIAPANVDFGGSLGYEEVISMMKSSKVFAIPSRREGFGISALEANACGLPVVTIRHQMNAVVEIAEKTGFVAEPHARDFAEKIRLALEMRREMREKCINFAKNFDWEVIARRLEEFYEGVHSPPNEGRAE | not soluble |
| MRVSCVYATASRWGGPPVASEVRGDAAISTTPDAAPGLAARRRRILFVAEAVTLAHVVRPFALAQSLDPSRYEVHFACDPRYNQLLGPLPFRHHAIHTIPSERFFGNLTQGRFYAMRTLRKYVEADLRVLDEIAPDLVVGDLRISLSVSARLAGIPYIAIANAYWSPYAQRRFPLPDVIWTRLFGVRLVKLLYRLERPLLFALQCMPLNWVRRRHGLSSLGWNLCRIFTDGDHTLYADVPELMPTYDLPANHEYLGPVLWSPAGKPPTWWDSLPTDRPIVYATLGTSGGRNLLQLVLNALAELPVTVIAATAGRSDLKTVPANAFVADYLPGEAAAARSAVVVCNGGSLTTQQALVAGVPVIGVAGNLDQHLNMEAVERAGAGVLLRTERLKSQRVAGAVMQVISRSEYRQAAARLADAFGRDRVGFPQHVENALRLMPENRPRTWLAS | not soluble |
| QVQLQQPGTELVRPGASVILSCKASGYTFTSYWINWVKQRPGQGLEWVGNIFPSDSYTNYNQKFKDKATLTVDKSSSTAYMQVNSPTSEDSAVYYCTRGARDTWFAYWGQGTLVTVSVAKTTPPSVFPLAPGSAAQTNSMVTLGCLVKGYFPEPVTVTWNSGSLSSGVHTFPAVLQSDLYTLSSSVTVPSSTWPSETVTCNVAHPASSTKVDKKIVPRDC | soluble |
